Read-outs that look alike come from different tables or passages of the source. Starred links: 1 amine or outer side, 2 acyl side, 3 side chain; linkers in the order of their positions; H or OH if unused. Positions of bridges follow the written chain, without caps; N, C: chain ends. No end group written: not given here. TBMB = c1c(C[*:1])cc(C[*:3])cc1C[*:2]
B1: BT66BDC-1 (peptide)
peptide: XXXXXXXXXXXACVPCADFPIWYC
modifications: DM1 toxin conjugated to the peptide through a linker shown only in the drawing of formula (I); N-terminal beta-alanine followed by ten sarcosines (Sar10); Ci, Cii and Ciii bound to TBMB scaffold
notes: The attachment site and linker stand only in drawings; also called BDC of formula (I)

How the values were obtained:
human CD38 [1] = target: T1, human CD38 (human, UniProt P28907 43-300, limits assumed); experiment: fluorescence polarisation competition, tracer …-Sar6-K(Fl)
T1 construct: also called hCD38
T1 sequence (looked up): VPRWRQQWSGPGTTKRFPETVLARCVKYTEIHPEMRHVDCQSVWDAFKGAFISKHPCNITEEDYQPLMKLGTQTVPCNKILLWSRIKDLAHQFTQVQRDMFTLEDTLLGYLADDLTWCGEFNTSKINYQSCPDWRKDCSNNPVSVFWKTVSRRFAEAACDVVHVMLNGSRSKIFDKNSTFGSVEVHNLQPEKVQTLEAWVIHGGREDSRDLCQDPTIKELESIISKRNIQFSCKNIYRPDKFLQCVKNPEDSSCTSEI

human CD38 [2] = target: T1, human CD38; experiment: as above; remark: listed apart in the source

Binder	Ki (human CD38 [1]) [nM]	Ki (human CD38 [2]) [nM]
B1	144	–
ACFTLDGECFLLGENCA (linker 2-9-16 via TBMB (inferred)) [66-08-52-N001]	–	562
